Assay results published in the supplement of paper PMC9233669.
This sample holds only a part of the variants without activity.

Columns and labels:
biotinyl-Phe-oxazolone = test: self-aminoacylation, catalytic enhancement (BFO) (fold over background); higher = more active; k-Seq, kA / k0A0; sequences stand for … in GGGAAUGGAUCCACAUCUACGAAUUC…UUCACUGCAGACUUGACGAAGCUG
Outline: (§1)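 Working in 50 μL HEPES/NaCl/KCl/MgCl2/CaCl2 buffer with 5% acetonitrile at pH 6.9–7.0, mutagenized RNA pools (0.43 μM; 21-nt variable region) were reacted with 2–1250 μM of each biotinyl-aminoacyl-oxazolone for 90 minutes at room temperature. Streptavidin capture followed, with quantification by triplicate qPCR and Illumina sequencing. Catalytic enhancement is reported as median kA over the uncatalyzed rate, the low-activity peak of a bimodal Gaussian fit to the data.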

biotinyl-Ile-oxazolone = test: self-aminoacylation, catalytic enhancement (BIO) (fold over background); higher = more active; k-Seq, kA / k0A0; sequences stand for … in GGGAAUGGAUCCACAUCUACGAAUUC…UUCACUGCAGACUUGACGAAGCUG
Outline: as §1

biotinyl-Met-oxazolone = test: self-aminoacylation, catalytic enhancement (BMO) (fold over background); higher = more active; k-Seq, kA / k0A0; sequences stand for … in GGGAAUGGAUCCACAUCUACGAAUUC…UUCACUGCAGACUUGACGAAGCUG
Outline: as §1

biotinyl-Val-oxazolone = test: self-aminoacylation, catalytic enhancement (BVO) (fold over background); higher = more active; k-Seq, kA / k0A0; sequences stand for … in GGGAAUGGAUCCACAUCUACGAAUUC…UUCACUGCAGACUUGACGAAGCUG
Outline: as §1

biotinyl-Leu-oxazolone = test: self-aminoacylation, catalytic enhancement (BLO) (fold over background); higher = more active; k-Seq, kA / k0A0; sequences stand for … in GGGAAUGGAUCCACAUCUACGAAUUC…UUCACUGCAGACUUGACGAAGCUG
Outline: as §1

biotinyl-Trp-oxazolone = test: self-aminoacylation, catalytic enhancement (BWO) (fold over background); higher = more active; k-Seq, kA / k0A0; sequences stand for … in GGGAAUGGAUCCACAUCUACGAAUUC…UUCACUGCAGACUUGACGAAGCUG
Outline: as §1

Sequence | self-aminoacylation (biotinyl-Phe-oxazolone) | self-aminoacylation (biotinyl-Ile-oxazolone) | self-aminoacylation (biotinyl-Met-oxazolone) | self-aminoacylation (biotinyl-Val-oxazolone) | self-aminoacylation (biotinyl-Leu-oxazolone) | self-aminoacylation (biotinyl-Trp-oxazolone)
CCACACUUCAAUUAAUCGGUC [Fam1B.1 aminoacylation ribozyme variant] | 26.1 | 1.01 | 0.937 | 1.06 | 1.09 | 15.6
AUCGCCCUGGUCAUCGAGUGA [Fam2.1 aminoacylation ribozyme variant] | 98.5 | 7.09 | 16.5 | 7.32 | 16 | 17.8
AUUAUCCUGGUCAUCGAGCGA [Fam2.1 aminoacylation ribozyme variant] | 1.01 | 1.77 | 1.59 | 1.41 | 1.83 | 1.46
CCACGCUCCAAGCAAUCGGUC [Fam1B.1 aminoacylation ribozyme variant] | 12.6 | 1.13 | 1.07 | 1.47 | 1.11 | 9.91
AGGUUUGCUAAUAGUCGCGAG [Fam3.1 aminoacylation ribozyme variant] | 2.48 | 1.56 | 1.65 | 1.78 | 1.61 | 2.59
AAGUUUGCCACUAGUCGCAAG [Fam3.1 aminoacylation ribozyme variant] | 0.709 | 0.918 | 0.991 | 1.15 | 0.973 | 0.807
AAAUUUGCUAAUAGUCGCAAC [Fam3.1 aminoacylation ribozyme variant] | 1.64 | 1.88 | 1.31 | 1.51 | 1.91 | 1.52
CUACUUCAGGCAAUCGGUCUG [Fam1A.1 aminoacylation ribozyme variant] | 1.02 | 0.94 | 0.853 | 1.24 | 1.42 | 1.27
CCACACUCCAAGCAAUCGGUC [Fam1B.1 aminoacylation ribozyme variant] | 2.6 | 0.984 | 0.789 | 1.08 | 0.855 | 1.59
CGACACUUCCAGCAAUCGGUC [Fam1B.1 aminoacylation ribozyme variant] | 0.915 | 1.56 | 1.14 | 1.49 | 1.19 | 1.15
CCACACUUCAAGCAAUUGGUC [Fam1B.1 aminoacylation ribozyme variant] | 1.43 | 0.702 | 0.625 | 0.707 | 0.594 | 0.858
AUUACCUUGGUCAGCGAGUGA [Fam2.1 aminoacylation ribozyme variant] | 21.5 | 3.26 | 5.05 | 3.08 | 5.38 | 6.84
AGCACCCUGGUCAUCGAGUGA [Fam2.1 aminoacylation ribozyme variant] | 6.9 | 4.58 | 8.03 | 3.89 | 6.84 | 9.35
AUUACACUGGUCAUUGAGUGA [Fam2.1 aminoacylation ribozyme variant] | 35 | 3.39 | 6.48 | 3.28 | 6.76 | 7.64
GUACUUCAAACAAUCGGUCUG [Fam1A.1 aminoacylation ribozyme variant] | 51.3 | 1.54 | 1.53 | 1.42 | 2.15 | 30.5
CCACACUGCCAGCAAUCGGUC [Fam1B.1 aminoacylation ribozyme variant] | 2.23 | 1.5 | 1.36 | 1.58 | 1.47 | 1.39
CCACGCUUCAAGCGAUCGGUC [Fam1B.1 aminoacylation ribozyme variant] | 2.6 | 0.888 | 1.14 | 1.2 | 1.05 | 3.3
AUUACCCUAGUCAUCGAAUGA [Fam2.1 aminoacylation ribozyme variant] | 0.87 | 0.919 | 1.02 | 1.06 | 0.924 | 0.469
AAGUUUGAUAAUCGUCGCAAG [Fam3.1 aminoacylation ribozyme variant] | 1.99 | 1.54 | 1.25 | 1.13 | 1.26 | 1.43
AUUCACCUAGGUCUGCGGGUG [Fam2.2 aminoacylation ribozyme variant] | 12.8 | 3.08 | 4.69 | 2.58 | 4.85 | 3.44
AUUACCCUGGUCAUCGAGGUA [Fam2.1 aminoacylation ribozyme variant] | 10.2 | 2.38 | 7.24 | 3.16 | 5.68 | 5.45
CUACCUCUAACAAUCGGUCUG [Fam1A.1 aminoacylation ribozyme variant] | 0.97 | 0.8 | 0.915 | 0.739 | 0.919 | 0.565
AAGUUUGCUAAAGGUCGCAAG [Fam3.1 aminoacylation ribozyme variant] | 1.14 | 0.687 | 0.931 | 0.625 | 0.716 | 0.835
CUACCUCAAACAAACGGUCUG [Fam1A.1 aminoacylation ribozyme variant] | 1.33 | 0.919 | 0.85 | 1.03 | 1.08 | 0.615
CUUACCCUGGUCAUCGUGUGA [Fam2.1 aminoacylation ribozyme variant] | 11.1 | 1.79 | 2.8 | 2.11 | 2.87 | 2.98
AUUCACCUAGGUCAUCCGGUA [Fam2.2 aminoacylation ribozyme variant] | 6.52 | 2.36 | 2.17 | 2.3 | 2.3 | 1.87
